US20140031259A1

Columns and labels:
[1] = target: AKT1 kinase domain (WT) fused to the Gal4 DNA binding domain (UniProt P04386); assay: cell-based or functional assay
[2] = target: AKT1 D323H kinase domain fused to the Gal4 DNA binding domain (UniProt P04386); assay: cell-based or functional assay

| Substance | luciferase reporter interaction signal in mammalian 2-hybrid assay, compared to WT-PH/WT-KD or E17K-PH/WT-KD [1] [% reduction] | luciferase reporter interaction signal in mammalian 2-hybrid assay, compared to WT-PH/WT-KD or E17K-PH/WT-KD [2] [% reduction] |
| --- | --- | --- |
| AKT1 L52R PH domain fused to the VP16 activation domain (from UniProt P31749 5-108) | 50 |  |
| AKT1 PH domain (WT) fused to the VP16 activation domain (from UniProt P31749 5-108) |  | 50 |
